# T1: mouse CD137Fc protein (Acro Biosystems 41B-M5258) (mouse, UniProt P20334 24-187)
# T1 construct: Bought protein; also called mouse CD137 protein; not shown: Fc tag, detected with anti human-Fc
# T1 sequence (looked up): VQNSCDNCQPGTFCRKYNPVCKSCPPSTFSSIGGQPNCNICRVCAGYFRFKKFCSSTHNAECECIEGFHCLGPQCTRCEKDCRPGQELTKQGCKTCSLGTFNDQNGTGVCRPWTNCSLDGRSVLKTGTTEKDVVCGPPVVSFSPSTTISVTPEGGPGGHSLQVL
# T2: rhesus CD137Fc recombinant protein (Sino Biologicals cat no. 90847-K02H) (rhesus; human, UniProt H9Z8K9 24-186)
# T2 construct: Bought protein; also called rhesus CD137-human IgG1 Fc tagged protein; not shown: human IgG1 Fc tag
# T2 sequence: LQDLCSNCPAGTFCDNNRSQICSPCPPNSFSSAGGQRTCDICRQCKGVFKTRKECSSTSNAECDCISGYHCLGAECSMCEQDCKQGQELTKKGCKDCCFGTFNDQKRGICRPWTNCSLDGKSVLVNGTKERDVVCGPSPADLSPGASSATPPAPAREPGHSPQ
# T3: human GITR-Fc (R&D Systems cat no. 689-GR) (human, UniProt Q9Y5U5 26-161)
# T3 construct: Bought protein; also called GITR (Glucocorticoid-induced TNFR-related); not shown: Fc tag
# T3 sequence (looked up): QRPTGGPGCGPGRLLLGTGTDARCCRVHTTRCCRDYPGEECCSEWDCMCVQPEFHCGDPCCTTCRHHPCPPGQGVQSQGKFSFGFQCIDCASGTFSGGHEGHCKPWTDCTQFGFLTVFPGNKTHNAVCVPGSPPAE
# T4: human OX40-Fc (R&D Systems cat no. 3388-OX) (human, UniProt P43489 29-216)
# T4 construct: Bought protein; not shown: Fc tag
# T4 sequence (looked up): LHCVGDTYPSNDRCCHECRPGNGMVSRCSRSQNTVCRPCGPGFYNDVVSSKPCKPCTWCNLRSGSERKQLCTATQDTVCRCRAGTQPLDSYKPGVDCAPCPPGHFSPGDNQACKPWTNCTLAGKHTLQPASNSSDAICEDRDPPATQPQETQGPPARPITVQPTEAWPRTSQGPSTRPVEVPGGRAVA
# B1: PSMA binding single VH domain antibody 4.1 (VHH)
# VHH: EVQLVESGGGVVQPGRSLRLSCAASGFSFSGYGMHWVRQAPGKGLEWVAYISYDGSNKYYADSVKGRFTISRDNSKNTLYLQMNSLRAEDTAVYYCAKDPAWGLRLGESSSYDFDIWGQGTMVTVSS
# notes: human single VH domain, PSMA specific
# B2: 4.1-6GS-1.1-6GS-VH (MSA) (bispecific antibody)
# chain: EVQLVESGGGVVQPGRSLRLSCAASGFSFSGYGMHWVRQAPGKGLEWVAYISYDGSNKYYADSVKGRFTISRDNSKNTLYLQMNSLRAEDTAVYYCAKDPAWGLRLGESSSYDFDIWGQGTMVTVSSGGGGSGGGGSGGGGSGGGGSGGGGSGGGGSEVQLVESGGGLVQPGGSLRLSCAASGFTFSSHWMTWFRQAPGKGLEWVAHIKEDGSEKYYEDSVEGRFTVSRDNAKNSVYLQMNSLRAEDTAVYYCARGGDGYSDSHFGVDVWGQGTTVTVSSGGGGSGGGGSGGGGSGGGGSGGGGSGGGGSQVQLVESGGGLVQPGGSLRLSCAASGFTFSSYAMSWVRQAPGKGLEWVATISDSGSSADYADSVKGRFTISRDNSKNTLYLQMNSLRAEDTAVYYCARGRYNWNPRALGIWGQGTMVTVSS
# notes: trispecific tandem VH (PSMA, CD137, mouse serum albumin); also called 4.1-6GS-1.1-VH (MSA); 4.1-6GS-1.1-6GS-MSA; not shown: His tag
# B3: Humabody VH 2.2 (VHH)
# VH: EVQLVESGGGLVKPGGSLRVSCAASGFTFSDYYMSWFRQAPGKGLEWVSYISGSGDIIDYADSVKGRFTISRDNAKNSLYLQMNSLRAEDTAVYHCAKEDSRIPGTTDFDNWGQGTLVTVSSHHHHHH
# notes: human single VH domain
# B4: Humabody VH 2.26 (VHH)
# VHH: EVQLVESGGGLVKPGGSLRLSCTASGFTFTDYYMSWFRQAPGKGLEWVSHISSSGTTIDYADSVKGRFTISRDNAKNSLYLQMNSLRADDTAVYYCAREDIRMPGTTDFDNWGQGTLVTVSS
# notes: human single VH domain
# Experiments:
# [1] = biological target: T5, PSMA-his (R&D Systems cat no. 4234-ZN) (human, UniProt Q04609 44-750); test: BLI (Octet RED384), PSMA-his amine-coupled to AR2G sensors, 1:1 model
# T5 construct: Bought protein; also called Human PSMA; not shown: His tag
# T5 sequence (Q04609 44-750 limits assumed): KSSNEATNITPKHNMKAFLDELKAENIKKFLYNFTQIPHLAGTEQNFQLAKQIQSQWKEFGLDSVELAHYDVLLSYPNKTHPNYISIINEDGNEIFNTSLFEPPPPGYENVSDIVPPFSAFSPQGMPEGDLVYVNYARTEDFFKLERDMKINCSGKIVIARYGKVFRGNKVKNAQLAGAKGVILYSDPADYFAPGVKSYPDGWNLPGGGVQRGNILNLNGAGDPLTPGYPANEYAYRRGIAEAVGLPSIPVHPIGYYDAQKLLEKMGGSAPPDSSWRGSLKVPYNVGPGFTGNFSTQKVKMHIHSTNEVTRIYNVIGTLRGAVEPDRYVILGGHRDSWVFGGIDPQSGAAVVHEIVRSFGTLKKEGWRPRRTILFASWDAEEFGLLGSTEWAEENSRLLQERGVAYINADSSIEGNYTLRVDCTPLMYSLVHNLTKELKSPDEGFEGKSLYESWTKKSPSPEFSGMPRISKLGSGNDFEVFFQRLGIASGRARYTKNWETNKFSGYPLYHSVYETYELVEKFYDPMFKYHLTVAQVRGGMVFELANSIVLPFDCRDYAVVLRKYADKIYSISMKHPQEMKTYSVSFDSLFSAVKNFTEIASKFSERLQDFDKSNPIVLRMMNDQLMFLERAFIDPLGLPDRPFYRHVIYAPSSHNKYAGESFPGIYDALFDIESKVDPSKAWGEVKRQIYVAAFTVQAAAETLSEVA
# Procedure: The kinetics of monovalent and bispecific Humabody VH were determined on a ForteBio Octet RED 384 instrument. To study the interaction with the antigens, CD137-Fc tag protein (Acro Biosystems cat no. 41B-H5258) or PSMA-his (R&D Systems cat no. 4234-ZN) was immobilised onto AR2G biosensors (ForteBio cat no. 18-5082) by amine coupling. Monovalent VH and bispecific molecules were serially diluted (typically 1:2 dilution series starting between 12-25 nM, at the highest concentration) in kinetics buffer (0.1% BSA, 0.02% Tween, 1×PBS) and binding to the immobilised proteins was studied during the association and dissociation phases. PSMA binding was measured using 180 seconds association and 600 seconds dissociation phases. CD137 binding was measured 180 seconds association and 600 seconds dissociation phases. Reference subtracted data were fitted to a 1:1 binding model using the ForteBio Octet Data Analysis software.
# [2] = biological target: T6, human PSMA expressed on cells (human, UniProt Q04609 1-750); test: FMAT, CHO human PSMA cells
# T6 construct: One molecule for both cell lines (CHO human PSMA, DU145 PSMA); the cell line stands under assay; also called CHO human PSMA; CHO PSMA
# T6 sequence (Q04609 whole entry): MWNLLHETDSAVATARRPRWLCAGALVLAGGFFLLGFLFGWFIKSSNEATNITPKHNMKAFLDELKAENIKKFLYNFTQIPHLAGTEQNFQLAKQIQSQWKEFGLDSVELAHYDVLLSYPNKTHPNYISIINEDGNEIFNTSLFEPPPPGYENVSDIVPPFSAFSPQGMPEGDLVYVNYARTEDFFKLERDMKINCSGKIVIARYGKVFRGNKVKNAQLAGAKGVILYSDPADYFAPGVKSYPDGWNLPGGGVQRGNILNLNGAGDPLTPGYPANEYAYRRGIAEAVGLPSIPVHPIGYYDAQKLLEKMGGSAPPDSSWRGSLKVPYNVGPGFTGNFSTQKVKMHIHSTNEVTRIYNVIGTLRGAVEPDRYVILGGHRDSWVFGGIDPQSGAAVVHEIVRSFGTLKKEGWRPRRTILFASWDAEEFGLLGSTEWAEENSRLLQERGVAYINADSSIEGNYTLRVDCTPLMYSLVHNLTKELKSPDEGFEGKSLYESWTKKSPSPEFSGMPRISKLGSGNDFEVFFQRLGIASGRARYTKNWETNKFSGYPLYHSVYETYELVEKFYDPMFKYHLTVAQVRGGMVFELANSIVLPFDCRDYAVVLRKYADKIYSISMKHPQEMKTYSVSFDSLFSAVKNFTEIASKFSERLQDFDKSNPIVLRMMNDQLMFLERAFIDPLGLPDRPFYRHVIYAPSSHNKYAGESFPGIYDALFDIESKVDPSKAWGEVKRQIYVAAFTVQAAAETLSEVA
# Procedure: (§1) Binding of His-tagged molecules to CHO human CD137, CHO parent, CHO human PSMA, DU145 PSMA and DU145 parent cells was assessed using Fluorescence Microvolume Assay Technology (FMAT). All reagents were prepared in FMAT assay buffer (pH 7.4) containing PBS, 0.1% Bovine Serum Albumin, 0.05% Sodium Azide. Serially diluted samples were transferred into 384 well black clear-bottomed assay plates (Costar cat. no. 3655) and incubated for a minimum of 2 hours at room temperature with 1.5 nM Anti-His (Millipore cat. no. 05-949), […] Goat Anti-Mouse Alexa Fluor-488 (Jackson ImmunoResearch cat. no. 115-545-071) and 2000 cells/well pre-stained with DRAQ5 (Thermo Scientific cat. no. 62251). Fluorescence emission was then measured on the TTP Mirrorball plate reader in the FL2 (502 nm-537 nm) and FL5 (677-800 nm) channels following excitation at 488 nm and 640 nm. Data was gated on FL5 perimeter and peak intensity and the FL2 median mean fluorescence intensity of the gated data used for determination of VH binding. Monovalent CD137 specific Humabody® VH, bispecific and trispecific molecules with a CD137 binding arm bound to CHO CD137 expressing cells. Monovalent PSMA specific Humabody® VH, bispecific and trispecific molecules with a PSMA binding arm bound to PSMA expressing cells.
# [3] = biological target: T6, human PSMA expressed on cells; test: FMAT, DU145 PSMA cells
# Procedure: as §1
# [4] = biological target: T7, human CD137 expressed on the surface of CHO cells (human, UniProt Q07011 24-255); test: FMAT, CHO human CD137 cells
# T7 construct: Also used for the Jurkat reporter cells that express human CD137 (functional rows); also called CHO human CD137 cells; CHO huCD137
# T7 sequence (Q07011 24-255 limits assumed): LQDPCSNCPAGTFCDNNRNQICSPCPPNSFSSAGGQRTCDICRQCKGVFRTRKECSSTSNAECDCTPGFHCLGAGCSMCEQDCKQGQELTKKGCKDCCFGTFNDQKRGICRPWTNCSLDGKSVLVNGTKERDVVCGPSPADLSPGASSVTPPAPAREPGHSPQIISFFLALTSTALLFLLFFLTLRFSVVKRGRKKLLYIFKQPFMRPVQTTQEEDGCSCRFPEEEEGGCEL
# Procedure: as §1
# [5] = biological target: T8, human CD137-human Fc chimeric protein (Acro Biosystems cat no. 41B-H5258) (human, UniProt Q07011 24-186); test: HTRF binding assay
# T8 construct: Bought protein; The Octet Protein G and Biacore experiments name no catalogue number; also called human CD137Fc recombinant protein; human CD137-Fc recombinant protein; not shown: human IgG1 Fc tag
# Procedure: (§2) Binding to human CD137Fc recombinant protein (Acro Biosystems 41B-H5258), rhesus CD137Fc recombinant protein (Sino Biologicals cat no. 90847-K02H) and mouse CD137Fc protein (Acro Biosystems 41B-M5258) was measured using an HTRF Binding assay format. All reagents and serially diluted VH were prepared in assay buffer containing PBS, 0.1% BSA and 0.4M Potassium Fluoride. Samples or assay buffer (non-specific binding) were incubated with 0.5 nM human, rhesus or mouse CD137, 1 nM Anti human-Fc Cryptate PAb (Cisbio cat. no. 61HFCKLB) and 20 nM anti His-D2 (CisBio cat no 61HISDLA) in black 384-shallow well assay plates for a minimum of 3 hours at room temperature. Time-resolved fluorescent emission at 620 nm and 665 nm was measured following excitation at 337 nm on the BMG PHERAstar plate reader. The HTRF ratio were calculated ((665 nm emission/620 nm emission)*10000) and the data corrected for (non-specific binding) to give the specific binding signal. VH bound to human and rhesus CD137 but not to mouse CD137 protein.
# [6] = biological target: T1, mouse CD137Fc protein (Acro Biosystems …); test: HTRF binding assay
# Procedure: as §2
# [7] = biological target: T2, rhesus CD137Fc recombinant protein …; test: HTRF binding assay
# Procedure: as §2
# [8] = biological target: T3, human GITR-Fc (R&D Systems cat no. …); test: ELISA, coated GITR-Fc
# Procedure: (§3) Specificity of binding for CD137 over the tumour necrosis factor receptor family members OX40 and GITR (Glucocorticoid-induced TNFR-related) was determined using an ELISA assay. Nunc Maxisorp plates were coated with 1 ug/ml human CD137-Fc recombinant protein (Acro Biosystems 41B-H5258), human GITR-Fc (R&D Systems cat no. 689-GR) human OX40-Fc (R&D Systems cat no. 3388-OX) in sodium carbonate buffer overnight at 4° C. then washed twice with PBS. Non-specific protein interactions were blocked by incubation with 1% (w/v) skimmed milk powder (Marvel®) in PBS/0.1% Tween-20 for 1 hour at room temperature. Plates were washed twice with PBS then VH or antibody control (1 ug/ml) added for 1 hour at room temperature. Following three washes with PBS/0.1% Tween-20 a 1:1000 dilution of anti His-HRP (VH detection) or anti mouse-HRP (positive control mouse monoclonal antibody detection) was added in 1% Marvel/PBS/0.1% Tween-20. The detection antibodies were allowed to bind for 1 hour at room temperature then the plates were washed twice in PBS/0.1% Tween-20 and once in PBS. The ELISA was developed using TMB substrate and the reaction was stopped by the addition of 50 ul 0.5M H₂SO₄ solution. The absorbance at 450 nm was measured using the BMG Pherastar.
# [9] = biological target: T9, CD137 on pre-stimulated human CD8+ T cells (human, UniProt Q07011 24-255); test: flow cytometry, PMA/ionomycin-stimulated human CD8+ T cells, mean of 2-3 donors
# T9 construct: also called pre-stimulated CD8+ cells; primary T cells
# T9 sequence (Q07011 24-255 limits assumed): as above
# Procedure: Binding to primary T cells was measured using flow cytometry. Peripheral blood mononuclear cells (PBMCs) were isolated from human blood by density gradient centrifugation then CD8+ T cells purified using a negative selection isolation kit according to the manufacturer's protocol (Miltenyi Biotech cat no 130-042-401). T-cells were stimulated PMA/Ionomycin for 48-72 hours in RPMI media supplemented with 10% FBS, 2 mM Glutamine, 1× Pen/Strep. Cells were transferred into 96 well plates, blocked for 10 mins with staining buffer (PBS/1% BSA/0.05% Sodium Azide) then incubated with serially diluted VH in staining buffer (PBS/1% BSA) for 30 mins-1 hour at 4° C. Cells were washed by centrifugation then VH binding detected using Anti His antibody (Millipore 05-949) and Goat Anti Mouse Alexa Fluor-488 (Jackson ImmunoResearch cat no. 115-545-071). A Live Dead near IR stain (Molecular Probes cat no. L10119) was used for discrimination of live cells. After further washing cells were fixed and fluorescence measured by flow cytometry.
# [10] = biological target: T4, human OX40-Fc (R&D Systems cat no. …); test: ELISA, coated OX40-Fc
# Procedure: as §3
# [11] = biological target: T8, human CD137-human Fc chimeric protein …; test: BLI (Octet RED384), CD137-Fc on Protein G sensors, 1:1 model
# Procedure: Binding kinetics of purified VH, bivalent VH and trivalent VH molecules were measured on a ForteBio Octet RED 384 instrument. CD137-Fc tagged protein was diluted to 3 μg/ml in kinetics buffer (0.1% BSA, 0.02% Tween, 1×PBS) and coupled to Protein G biosensors (ForteBio cat no. 18-5082) via the Fc tag. VH were serially diluted (typically 1:2 dilution series starting with 50 nM, VH at the highest concentration) and binding to the CD137-Fc-coupled Protein G biosensors measured. Binding kinetics were determined from the (blank subtracted) sensor gram trace using 1:1 binding models and ForteBio Octet Data Analysis 9.0 software. Example kinetic and binding affinity data obtained is shown Table 10 (monovalent VH) and FIG. 1 (bivalent and trivalent molecules).
# [12] = biological target: T7, human CD137 expressed on the surface of …; test: FMAT ligand inhibition, CD137 Ligand on CHO human CD137 cells
# Procedure: In parallel to the binding assay, periplasmic extracts were tested for their ability to inhibit the interaction of human CD137 ligand protein with CHO human CD137 cells in an FMAT format. Total binding controls containing diluted periplasmic extract sample buffer and non-specific binding controls containing excess non-Fc tagged competitor were set up on each plate for data normalisation. Fluorescence signal was measured using the TTP Mirrorball and the FL2 median mean fluorescence intensity of gated used for the data normalisation. The data was expressed as a % of the total binding control (% control) after subtraction of the background signal determined from the non-specific binding control wells.
# The ability of purified Humabody VH to inhibit the binding of CD137 Ligand to CHO human CD137 cells was measured in the FMAT ligand inhibition assay essentially as described in Example 6. VH inhibited the binding of human CD137 Ligand to human CD137.
binder,measurement,setting,value
B1,Kd,[1],0.53 nM
same,koff,[1],0.00016 s⁻¹
same,kon,[1],310000 M⁻¹ s⁻¹
same,EC50,[2],0.17 nM
same,EC50,[3],0.19 nM
B2,EC50,[4],0.58 nM
same,EC50,[2],0.32 nM
same,EC50,[3],0.36 nM
B3,EC50,[5],0.91 nM
same,binding result,[6],no binding
same,EC50,[7],0.56 nM
same,binding result,[8],no binding (tested: 1 ug/ml)
same,EC50,[9],0.74 nM
same,EC50,[4],0.18 nM
same,binding result,[10],no binding (tested: 1 ug/ml)
B4,Kd,[11],4.7 nM
same,koff,[11],0.00842 s⁻¹
same,kon,[11],1.8e+06 M⁻¹ s⁻¹
same,IC50,[12],8.5 nM
same,EC50,[9],2.8 nM
same,EC50,[4],0.18 nM

# From patent US20200362047A1 (CRESCENDO BIOLOGICS, published 2020)
